Test results from article PMC8454987 (PLoS Biology, 2021).

Legend:
[1] = target: HHV-8 gH/gL ectodomain complex (insect cell, for crystallization) (human herpesvirus 8 (HHV-8)) (UniProt F5HAK9); assay: SEC-MALS
[2] = target: T1, EphA2 ectodomain (res. 27 to 534), wild type (human, UniProt P29317 27-534); assay: BLI; conditions: both partners purified
T1 construct: also called WT EphA2 ectodomain

[3] = target: EphA2 LBD (res. 27 to 202), wild type (human, UniProt P29317 27-202); assay: BLI; conditions: both partners purified
[4] = target: the molecule itself; assay: crystal structure

HHV-8 gH/gL ectodomain complex (insect cell, for crystallization) (human herpesvirus 8 (HHV-8)), sequence (F5HAK9 whole entry, looked up, the tested form may be a part, one chain of several): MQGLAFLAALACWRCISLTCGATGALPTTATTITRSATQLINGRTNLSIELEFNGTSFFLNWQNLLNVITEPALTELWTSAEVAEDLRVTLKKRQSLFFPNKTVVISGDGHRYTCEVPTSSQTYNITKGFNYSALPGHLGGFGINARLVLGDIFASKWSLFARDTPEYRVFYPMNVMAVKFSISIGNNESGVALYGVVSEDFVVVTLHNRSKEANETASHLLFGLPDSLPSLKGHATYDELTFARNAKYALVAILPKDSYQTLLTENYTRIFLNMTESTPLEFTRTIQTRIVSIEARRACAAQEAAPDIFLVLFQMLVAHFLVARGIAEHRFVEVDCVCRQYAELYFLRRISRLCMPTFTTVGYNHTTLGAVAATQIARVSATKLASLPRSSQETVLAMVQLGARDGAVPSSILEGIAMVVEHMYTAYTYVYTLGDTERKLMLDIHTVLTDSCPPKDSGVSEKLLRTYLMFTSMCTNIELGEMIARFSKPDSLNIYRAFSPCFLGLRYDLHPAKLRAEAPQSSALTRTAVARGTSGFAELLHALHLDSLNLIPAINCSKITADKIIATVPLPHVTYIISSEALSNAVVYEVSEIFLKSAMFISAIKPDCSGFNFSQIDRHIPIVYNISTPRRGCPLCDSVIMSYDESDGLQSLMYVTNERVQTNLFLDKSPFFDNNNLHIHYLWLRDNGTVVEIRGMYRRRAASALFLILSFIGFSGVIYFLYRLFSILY
T1 sequence (P29317 27-534): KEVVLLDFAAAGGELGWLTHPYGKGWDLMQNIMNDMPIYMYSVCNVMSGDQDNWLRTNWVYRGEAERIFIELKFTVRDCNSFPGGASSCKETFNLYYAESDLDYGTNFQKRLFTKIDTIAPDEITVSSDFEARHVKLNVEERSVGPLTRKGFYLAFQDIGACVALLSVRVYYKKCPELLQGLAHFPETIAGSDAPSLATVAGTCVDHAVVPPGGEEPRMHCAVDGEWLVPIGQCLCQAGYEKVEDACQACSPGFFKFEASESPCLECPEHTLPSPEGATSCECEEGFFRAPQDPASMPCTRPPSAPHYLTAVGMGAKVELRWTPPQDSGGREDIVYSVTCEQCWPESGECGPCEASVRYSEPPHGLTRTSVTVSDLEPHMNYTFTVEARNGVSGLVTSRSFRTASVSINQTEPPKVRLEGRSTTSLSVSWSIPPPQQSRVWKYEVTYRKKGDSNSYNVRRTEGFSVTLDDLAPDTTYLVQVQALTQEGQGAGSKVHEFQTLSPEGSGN

EphA2 ligand-binding domain (residues 23 to 202), insect cell (from UniProt P29317 23-202) (domain or fragment)
stoichiometry N [1]: 1

EphA2 ectodomain (res. 27 to 534), wild type (from UniProt P29317 27-534) (domain or fragment)
stoichiometry N [1]: 1

B1: HHV-8 gH^his/gL^st wild type (mammalian cells) (complex)
chain 1: LPTTATTITRSATQLINGRTNLSIELEFNGTSFFLNWQNLLNVITEPALTELWTSAEVAEDLRVTLKKRQSLFFPNKTVVISGDGHRYTCEVPTSSQTYNITKGFNYSALPGHLGGFGINARLVLGDIFASKWSLFARDTPEYRVFYPMNVMAVKFSISIGNNESGVALYGVVSEDFVVVTLHNRSKEANETASHLLFGLPDSLPSLKGHATYDELTFARNAKYALVAILPKDSYQTLLTENYTRIFLNMTESTPLEFTRTIQTRIVSIEARRACAAQEAAPDIFLVLFQMLVAHFLVARGIAEHRFVEVDCVCRQYAELYFLRRISRLCMPTFTTVGYNHTTLGAVAATQIARVSATKLASLPRSSQETVLAMVQLGARDGAVPSSILEGIAMVVEHMYTAYTYVYTLGDTERKLMLDIHTVLTDSCPPKDSGVSEKLLRTYLMFTSMCTNIELGEMIARFSKPDSLNIYRAFSPCFLGLRYDLHPAKLRAEAPQSSALTRTAVARGTSGFAELLHALHLDSLNLIPAINCSKITADKIIATVPLPHVTYIISSEALSNAVVYEVSEIFLKSAMFISAIKPDCSGFNFSQIDRHIPIVYNISTPRRGCPLCDSVIMSYDESDGLQSLMYVTNERVQTNLFLDKSPFFDNNNLHIHYLWLRDNGTVVEIRGMYRRRAAS
chain 2: YVALPCCAIQASAASTLPLFFAVHSIHFADPNHCNGVCIAKLRSKTGDITVETCVNGFNLRSFLVAVVRRLGSWASQENLRLLWYLQRSLTAYTVGFNATTADSSIHNVNIIIISVGKAMNRTGSVSGSQTRAKSSSRRAHAGQKGK
Kd [2]: < 1 nM
Kd [3]: < 1 nM

B2: EphA2 ligand-binding domain (residues 23 to 202), insect cell (domain or fragment, human, UniProt P29317 23-202, looked up)
chain: AAQGKEVVLLDFAAAGGELGWLTHPYGKGWDLMQNIMNDMPIYMYSVCNVMSGDQDNWLRTNWVYRGEAERIFIELKFTVRDCNSFPGGASSCKETFNLYYAESDLDYGTNFQKRLFTKIDTIAPDEITVSSDFEARHVKLNVEERSVGPLTRKGFYLAFQDIGACVALLSVRVYYKKCP
notes: also called EphA2 LBD; LBD
binding result [4]: binds
